# Experimental data from publication PMC4437517 (Proteins, 2008).
# B1: protein product of the Arabidopsis thaliana gene locus At1g05000 (enzyme, UniProt Q9ZVN4 1-215, looked up)
# chain: SKLVEKTTTTEQDNGEDFCRTIIEVSEVNRNVFQAPGGEADPFRVVSGEELHLIPPLNFSMVDNGIFRSGFPDSANFSFLQTLGLRSIIYLCPEPYPESNLQFLKSNGIRLFQFGIEGNKEPFVNIPDHKIRMALKVLLDEKNHPVLIHCKRGKHRTGCLVGCLRKLQKWCLTSIFDEYQRFAAAKARVSDQRFMEIFDVSSFSHIPMSFSCSIR
# modifications: selenomethionine-labeled
# Key:
# SEC = biological target: the molecule itself; assay: SEC
# crystal structure = biological target: the molecule itself; assay: crystal structure
protein,measurement,setting,value
B1,stoichiometry N,SEC,2
same,stoichiometry N,crystal structure,6
